T1: XgrDyP (Xylaria grammica, UniProt A0A439DJS1)
T1 construct: gene EKO27_g488; wild-type, natively secreted, purified from Xylaria grammica culture liquid (AEX, SEC, MonoQ); 49 kDa on SDS-PAGE; heme protein
T1 sequence (A0A439DJS1 1-493): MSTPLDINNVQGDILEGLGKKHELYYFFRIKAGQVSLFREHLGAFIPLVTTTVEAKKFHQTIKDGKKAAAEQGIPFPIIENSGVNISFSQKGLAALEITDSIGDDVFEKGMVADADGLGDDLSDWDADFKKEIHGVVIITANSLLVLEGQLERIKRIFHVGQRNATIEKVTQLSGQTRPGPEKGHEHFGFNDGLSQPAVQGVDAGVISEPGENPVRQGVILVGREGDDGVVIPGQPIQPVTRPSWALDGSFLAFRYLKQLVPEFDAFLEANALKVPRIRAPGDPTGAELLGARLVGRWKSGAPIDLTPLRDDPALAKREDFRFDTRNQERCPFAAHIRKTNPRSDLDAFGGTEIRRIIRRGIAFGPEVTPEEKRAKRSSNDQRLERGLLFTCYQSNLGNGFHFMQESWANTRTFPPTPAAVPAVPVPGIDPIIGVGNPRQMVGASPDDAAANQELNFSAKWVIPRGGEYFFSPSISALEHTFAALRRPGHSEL


Columns and labels:
[1] = target: T1, XgrDyP; experiment: spectrophotometric decolorization at […] nm, Lineweaver-Burk; assay type: biochemical; conditions: apparent; 50 mM sodium citrate pH 4.5, H2O2 co-substrate held constant, room temperature
[2] = substrate: COc1cccc(OC)c1O; experiment: purified protein; assay type: biochemical, Xylaria grammica; conditions: apparent, 50 mM sodium citrate pH 4.5, H2O2 co-substrate held constant, room temperature
[3] = substrate: CCn1c(=NN=c2sc3cc(S(=O)(=O)O)ccc3n2CC)sc2cc(S(=O)(=O)O)ccc21; experiment: purified protein; assay type: biochemical, Xylaria grammica; conditions: apparent, 50 mM sodium citrate pH 4.5, H2O2 co-substrate held constant, room temperature

Km [1]	Molecule	Km [2]	kcat [2]	kcat/Km [2]	Km [3]	kcat [3]	kcat/Km [3]
41 µM	Nc1c(S(=O)(=O)O)cc(Nc2ccc(S(=O)(=O)O)c(Nc3nc(Cl)nc(Nc4cccc(S(=O)(=O)O)c4)n3)c2)c2c1C(=O)c1ccccc1C2=O [RBlue5]	–	–	–	–	–	–
–	XgrDyP (Xylaria grammica) (protein, wild-type, natively secreted, purified from Xylaria grammica culture liquid (AEX, SEC, MonoQ); 49 kDa on SDS-PAGE; heme protein) MSTPLDINNVQGDILEGLGKKHELYYFFRIKAGQVSLFREHLGAFIPLVTTTVEAKKFHQTIKDGKKAAAEQGIPFPIIENSGVNISFSQKGLAALEITDSIGDDVFEKGMVADADGLGDDLSDWDADFKKEIHGVVIITANSLLVLEGQLERIKRIFHVGQRNATIEKVTQLSGQTRPGPEKGHEHFGFNDGLSQPAVQGVDAGVISEPGENPVRQGVILVGREGDDGVVIPGQPIQPVTRPSWALDGSFLAFRYLKQLVPEFDAFLEANALKVPRIRAPGDPTGAELLGARLVGRWKSGAPIDLTPLRDDPALAKREDFRFDTRNQERCPFAAHIRKTNPRSDLDAFGGTEIRRIIRRGIAFGPEVTPEEKRAKRSSNDQRLERGLLFTCYQSNLGNGFHFMQESWANTRTFPPTPAAVPAVPVPGIDPIIGVGNPRQMVGASPDDAAANQELNFSAKWVIPRGGEYFFSPSISALEHTFAALRRPGHSEL	12 µM	29 s⁻¹	2.5e+06 M⁻¹ s⁻¹	41 µM	12 s⁻¹	287000 M⁻¹ s⁻¹
